Patent US20110162109A1 (BASF PLANT SCIENCE, published 2011)

T1: LUG/RON2, At4G32551 (Arabidopsis thaliana, UniProt Q9FUY2 1-931)
T1 construct: Endogenous prey in TAP; fusion protein in yeast two-hybrid
T1 sequence (looked up): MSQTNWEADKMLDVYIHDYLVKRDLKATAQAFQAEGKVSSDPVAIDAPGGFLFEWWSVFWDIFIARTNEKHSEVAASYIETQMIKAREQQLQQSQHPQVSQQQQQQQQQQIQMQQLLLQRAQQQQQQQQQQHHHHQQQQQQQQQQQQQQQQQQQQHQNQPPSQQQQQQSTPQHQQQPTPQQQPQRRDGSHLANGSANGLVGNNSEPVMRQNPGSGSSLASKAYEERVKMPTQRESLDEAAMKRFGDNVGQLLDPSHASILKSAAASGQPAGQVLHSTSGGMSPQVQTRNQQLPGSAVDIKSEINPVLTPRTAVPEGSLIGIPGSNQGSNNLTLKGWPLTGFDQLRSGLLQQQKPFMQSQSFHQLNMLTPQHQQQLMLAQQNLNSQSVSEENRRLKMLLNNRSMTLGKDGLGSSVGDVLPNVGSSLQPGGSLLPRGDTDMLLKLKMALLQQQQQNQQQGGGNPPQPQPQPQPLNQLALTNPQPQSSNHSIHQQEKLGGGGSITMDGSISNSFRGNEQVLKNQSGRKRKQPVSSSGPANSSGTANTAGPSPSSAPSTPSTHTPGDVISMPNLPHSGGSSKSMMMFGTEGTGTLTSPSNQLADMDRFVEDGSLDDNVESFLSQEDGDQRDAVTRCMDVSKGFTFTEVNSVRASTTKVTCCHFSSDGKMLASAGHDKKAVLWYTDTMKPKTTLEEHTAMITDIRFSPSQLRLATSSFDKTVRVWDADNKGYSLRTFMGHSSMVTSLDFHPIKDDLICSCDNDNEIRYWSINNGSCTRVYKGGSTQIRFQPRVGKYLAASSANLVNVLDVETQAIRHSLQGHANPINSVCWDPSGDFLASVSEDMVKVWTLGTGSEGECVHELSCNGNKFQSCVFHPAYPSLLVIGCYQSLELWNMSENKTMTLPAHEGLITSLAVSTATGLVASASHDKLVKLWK

T2: HUB1 (Histone Monoubiquitination 1), At2g44950, Arabidopsis thaliana (Arabidopsis thaliana, UniProt Q8RXD6 1-878)
T2 construct: Full length HUB1; In the TAP experiments N-terminally fused to the TAP tag or the GS-TAP tag; in yeast two-hybrid fused to AD (pDEST22) or BD (pDEST32); all these constructs are written under this one entry; also called HUB1fl; full length HUB1
T2 sequence: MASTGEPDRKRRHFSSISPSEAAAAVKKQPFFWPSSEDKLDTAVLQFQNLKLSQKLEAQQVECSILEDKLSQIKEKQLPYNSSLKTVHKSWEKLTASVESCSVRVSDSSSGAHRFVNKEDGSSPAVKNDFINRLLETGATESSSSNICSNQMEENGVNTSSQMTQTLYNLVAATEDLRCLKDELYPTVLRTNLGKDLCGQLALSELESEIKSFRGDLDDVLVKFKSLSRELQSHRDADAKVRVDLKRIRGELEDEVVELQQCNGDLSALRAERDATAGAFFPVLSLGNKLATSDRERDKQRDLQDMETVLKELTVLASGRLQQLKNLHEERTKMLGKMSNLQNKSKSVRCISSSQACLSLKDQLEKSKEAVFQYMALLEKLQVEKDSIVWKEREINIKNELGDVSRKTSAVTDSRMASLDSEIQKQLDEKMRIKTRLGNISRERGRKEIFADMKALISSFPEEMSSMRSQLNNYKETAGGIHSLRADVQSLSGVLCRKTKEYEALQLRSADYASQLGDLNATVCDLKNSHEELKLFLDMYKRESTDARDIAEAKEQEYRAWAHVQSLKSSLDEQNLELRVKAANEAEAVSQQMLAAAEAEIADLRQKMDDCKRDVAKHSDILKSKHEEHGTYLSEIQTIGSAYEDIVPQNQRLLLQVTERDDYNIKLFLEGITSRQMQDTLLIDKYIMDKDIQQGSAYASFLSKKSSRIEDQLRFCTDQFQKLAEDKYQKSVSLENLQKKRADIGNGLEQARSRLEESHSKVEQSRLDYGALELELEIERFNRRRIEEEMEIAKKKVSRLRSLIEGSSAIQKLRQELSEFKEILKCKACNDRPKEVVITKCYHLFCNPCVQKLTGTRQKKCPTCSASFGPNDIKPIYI

T3: HUB2, At1g55250, Arabidopsis thaliana (Arabidopsis thaliana, UniProt Q9C895 1-900)
T3 construct: As prey the endogenous protein of Arabidopsis cell culture; as bait N-terminal GS-TAP fusion; in yeast two-hybrid an AD fusion; also called AAG51572.1
T3 sequence: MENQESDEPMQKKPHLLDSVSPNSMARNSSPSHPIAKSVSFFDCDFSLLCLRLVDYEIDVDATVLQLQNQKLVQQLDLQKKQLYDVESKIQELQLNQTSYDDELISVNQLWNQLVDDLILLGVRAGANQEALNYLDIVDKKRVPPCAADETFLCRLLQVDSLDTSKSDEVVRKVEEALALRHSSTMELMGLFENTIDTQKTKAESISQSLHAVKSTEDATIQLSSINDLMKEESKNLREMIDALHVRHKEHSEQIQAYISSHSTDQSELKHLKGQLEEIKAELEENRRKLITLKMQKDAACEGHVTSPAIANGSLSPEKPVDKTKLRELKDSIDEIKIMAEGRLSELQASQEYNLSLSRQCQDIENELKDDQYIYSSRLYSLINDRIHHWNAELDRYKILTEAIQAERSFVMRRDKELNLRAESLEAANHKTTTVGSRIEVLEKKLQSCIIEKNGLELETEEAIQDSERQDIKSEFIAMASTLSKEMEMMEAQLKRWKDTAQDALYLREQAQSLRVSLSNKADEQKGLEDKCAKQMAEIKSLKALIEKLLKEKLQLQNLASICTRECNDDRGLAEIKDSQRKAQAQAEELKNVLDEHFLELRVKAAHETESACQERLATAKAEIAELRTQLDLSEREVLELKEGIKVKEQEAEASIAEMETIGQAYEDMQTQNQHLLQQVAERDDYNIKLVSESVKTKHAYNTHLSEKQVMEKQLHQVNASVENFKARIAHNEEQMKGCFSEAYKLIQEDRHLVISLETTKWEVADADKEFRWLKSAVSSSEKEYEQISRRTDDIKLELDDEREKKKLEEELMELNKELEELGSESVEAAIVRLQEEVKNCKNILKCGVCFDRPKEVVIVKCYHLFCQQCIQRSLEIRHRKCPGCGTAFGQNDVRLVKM


Columns and labels:
[1] = biological target: T1, LUG/RON2, At4G32551; assay: yeast two-hybrid
[2] = biological target: UBC2, At2g02760 (Arabidopsis thaliana) (UniProt P42745); assay: GS-TAP purification + MALDI-TOF-TOF MS, bait UBC2 (second block, as the rows stand); expectance is the MS identification score
[3] = biological target: T2, HUB1 (Histone Monoubiquitination 1), …; assay: TAP with N-terminally TAP-tagged HUB1, mass spectrometry; column To be confirmed (interacted only once)
Method: (§1) Because the RING proteins have their functionally important domain at the C-terminus, an N-terminal fusion was prepared instead of the traditional C-terminal fusion by cloning both full length and the point mutant form of HUB1 (HUB1pm, HUB1fl). The Arabidopsis cell cultures were transformed with the two constructs and cultivated on 10 litre scale, harvested and purified by TAP (Van Leene et al., Mol. Cell. Proteomics 6, 1226-38, 2007). The protein extracts were separated on 1-D SDS-PAGE gels and isolated from gel for protein identification by mass spectrometry (Laukens et al., Proteomics. 4, 720-7, 2004, Van Leene et al., 2007). Two cut offs were used resulting in “confirmed” and “to be confirmed” candidate interactor lists (Table I).
(§2) In the data set of confirmed interactors TAP HUB1 and HUB2 were present, […] the dimer formation between the homologues. In addition, the acetyltransferase GCN5, RNA binding proteins and a KH domain protein were identified as HUB1 interacting proteins. Most of these proteins are known to be localized in nucleus or nucleoli. GFP constructs of HUB1 have also been localized to nucleus (Liu et al., 2007). When HUB1pm was used for TAP purification no HUB2 could be identified as an interacting protein.

[4] = biological target: T3, HUB2, At1g55250, Arabidopsis thaliana; assay: tandem affinity purification with NTAP-tagged HUB1pm
Method: as §1, §2

[5] = biological target: histone H2B

Chain of UBC2, At2g02760 (Arabidopsis thaliana) (P42745 whole entry): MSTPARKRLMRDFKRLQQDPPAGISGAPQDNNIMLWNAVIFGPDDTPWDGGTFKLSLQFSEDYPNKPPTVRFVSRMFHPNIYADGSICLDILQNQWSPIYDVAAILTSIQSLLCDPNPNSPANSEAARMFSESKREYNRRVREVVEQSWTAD

binding result [1]	Expectance [2]	binding result [3]	binding result [4]	Binder	monoubiquitination of histone H2B in the in vitro ubiquitination assay (protein gel blot) [5]
binds	1e-24	binds		SEUSS, At1g43850 (other, Arabidopsis thaliana, UniProt Q8W234 1-877, looked up, As prey endogenous; as bait N-terminal GS-TAP fusion; in yeast two-hybrid an AD fusion) MVPSEPPNPVGGGENVPPSILGGQGGAPLPSQPAFPSLVSPRTQFGNNMSMSMLGNAPNISSLLNNQSFVNGIPGSMISMDTSGAESDPMSNVGFSGLSSFNASSMVSPRSSGQVQGQQFSNVSANQLLAEQQRNKKMETQSFQHGQQQSMQQQFSTVRGGGLAGVGPVKMEPGQVSNDQQHGQVQQQQQKMLRNLGSVKLEPQQIQAMRNLAQVKMEPQHSEQSLFLQQQQRQQQQQQQQQFLQMPGQSPQAQMNIFQQQRLMQLQQQQLLKSMPQQRPQLPQQFQQQNLPLRPPLKPVYEPGMGAQRLTQYMYRQQHRPEDNNIEFWRKFVAEYFAPNAKKRWCVSMYGSGRQTTGVFPQDVWHCEICNRKPGRGFEATAEVLPRLFKIKYESGTLEELLYVDMPRESQNSSGQIVLEYAKATQESVFEHLRVVRDGQLRIVFSPDLKIFSWEFCARRHEELIPRRLLIPQVSQLGSAAQKYQQAAQNATTDSALPELQNNCNMFVASARQLAKALEVPLVNDLGYTKRYVRCLQISEVVNSMKDLIDYSRETRTGPIESLAKFPRRTGPSSALPGPSPQQASDQLRQQQQQQQQQQQQQQQQQQQQQQQQTVSQNTNSDQSSRQVALMQGNPSNGVNYAFNAASASTSTSSIAGLIHQNSMKGRHQNAAYNPPNSPYGGNSVQMQSPSSSGTMVPSSSQQQHNLPTFQSPTSSSNNNNPSQNGIPSVNHMGSTNSPAMQQAGEVDGNESSSVQKILNEILMNNQAHNNSSGGSMVGHGSFGNDGKGQANVNSSGVLLMNGQVNNNNNTNIGGAGGFGGGIGQSMAANGINNINGNNSLMNGRVGMMVRDPNGQQDLGNQLLGAVNGFNNFDWNA	
			no binding	HUB1pm (HUB1 point mutant, Cys residues nr 1 and 2 of the C3HC4 RING domain changed into Ser) (enzyme, In TAP N-terminally TAP-tagged; also called HUBpm; At2g44950 Arabidopsis thaliana point mutation) MASTGEPDRKRRHFSSISPSEAAAAVKKQPFFWPSSEDKLDTAVLQFQNLKLSQKLEAQQVECSILEDKLSQIKEKQLPYNSSLKTVHKSWEKLTASVESCSVRVSDSSSGAHRFVNKEDGSSPAVKNDFINRLLETGATESSSSNICSNQMEENGVNTSSQMTQTLYNLVAATEDLRCLKDELYPTVLRTNLGKDLCGQLALSELESEIKSFRGDLDDVLVKFKSLSRELQSHRDADAKVRVDLKRIRGELEDEVVELQQCNGDLSALRAERDATAGAFFPVLSLGNKLATSDRERDKQRDLQDMETVLKELTVLASGRLQQLKNLHEERTKMLGKMSNLQNKSKSVRCISSSQACLSLKDQLEKSKEAVFQYMALLEKLQVEKDSIVWKEREINIKNELGDVSRKTSAVTDSRMASLDSEIQKQLDEKMRIKTRLGNISRERGRKEIFADMKALISSFPEEMSSMRSQLNNYKETAGGIHSLRADVQSLSGVLCRKTKEYEALQLRSADYASQLGDLNATVCDLKNSHEELKLFLDMYKRESTDARDIAEAKEQEYRAWAHVQSLKSSLDEQNLELRVKAANEAEAVSQQMLAAAEAEIADLRQKMDDCKRDVAKHSDILKSKHEEHGTYLSEIQTIGSAYEDIVPQNQRLLLQVTERDDYNIKLFLEGITSRQMQDTLLIDKYIMDKDIQQGSAYASFLSKKSSRIEDQLRFCTDQFQKLAEDKYQKSVSLENLQKKRADIGNGLEQARSRLEESHSKVEQSRLDYGALELELEIERFNRRRIEEEMEIAKKKVSRLRSLIEGSSAIQKLRQELSEFKEILKSKASNDRPKEVVITKCYHLFCNPCVQKLTGTRQKKCPTCSASFGPNDIKPIYI	shift of H2B by 10 kDa
